Assay results taken from patent US20130230533A1 (Regeneron, published 2013).

Experiments:
Monomeric human CD48-mmH = target: T1, Monomeric human CD48-mmH (human); assay: SPR (Biacore T100), 25 C, antibody captured by anti-Fc, monomeric CD48-mmH in solution
T1 construct: also called soluble CD48 expressed with a myc-myc-hexa-histidine C-terminal tag [mmH]
T1 chain: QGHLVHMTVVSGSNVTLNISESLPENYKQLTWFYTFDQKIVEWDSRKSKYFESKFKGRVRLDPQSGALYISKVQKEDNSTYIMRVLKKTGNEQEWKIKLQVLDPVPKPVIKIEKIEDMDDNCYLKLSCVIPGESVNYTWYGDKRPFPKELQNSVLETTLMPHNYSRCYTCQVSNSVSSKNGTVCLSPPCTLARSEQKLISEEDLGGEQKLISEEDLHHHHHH
Procedure: (§1) Measurements were conducted on a T100-2 BIACORE™ instrument (Biacore Life Sciences division of GE Healthcare, Piscataway, N.J.). Antibodies (either with mouse Fc [designated “H2M” or “H3M”] or human IgG4 Fc [designated “H4H”]) were captured through an anti-Fc chip surface, and CD48 was flowed over the surface either in a monomeric (soluble CD48 expressed with a myc-myc-hexa-histidine C-terminal tag [mmH]) or dimeric (soluble CD48 expressed with a C-terminal Fc fusion [mFc]) format.
(§2) The soluble CD48 was applied to the flow cell in separate injections at different concentrations, and kinetic association (kₐ) and dissociation (kd) rate constants were determined by fits to the kinetic binding data using Biacore software. Binding dissociation equilibrium constants and dissociation half-times were calculated from the kinetic rate constants as: KD=kd/kₐ; t_{1/2}=(ln 2/kd) (units: ka=M⁻¹*s⁻¹; kd=s⁻¹; KD=M; T½=min) (Tables 3-6).

Dimeric human CD48-mFc = target: T2, Dimeric human CD48-mFc (human); assay: SPR (Biacore T100), 25 C, antibody captured by anti-Fc, dimeric CD48-mFc in solution
T2 chain: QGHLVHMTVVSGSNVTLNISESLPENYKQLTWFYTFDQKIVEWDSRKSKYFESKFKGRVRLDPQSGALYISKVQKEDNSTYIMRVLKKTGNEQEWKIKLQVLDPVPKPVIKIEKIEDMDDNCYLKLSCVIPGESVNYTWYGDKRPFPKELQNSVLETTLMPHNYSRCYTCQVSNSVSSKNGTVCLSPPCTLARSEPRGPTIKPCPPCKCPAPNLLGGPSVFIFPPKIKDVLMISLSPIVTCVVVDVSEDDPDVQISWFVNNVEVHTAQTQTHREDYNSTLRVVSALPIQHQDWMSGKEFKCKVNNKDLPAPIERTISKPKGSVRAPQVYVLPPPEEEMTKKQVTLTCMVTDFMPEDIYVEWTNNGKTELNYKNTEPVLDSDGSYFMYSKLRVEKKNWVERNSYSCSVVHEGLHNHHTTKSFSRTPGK
Procedure: as §1, §2

Binder	Kd (Monomeric human CD48-mmH) [nM]	T½ (Monomeric human CD48-mmH) [h]	koff (Monomeric human CD48-mmH) [s⁻¹]	kon (Monomeric human CD48-mmH) [M⁻¹ s⁻¹]	Kd (Dimeric human CD48-mFc) [nM]	T½ (Dimeric human CD48-mFc) [h]	koff (Dimeric human CD48-mFc) [s⁻¹]	kon (Dimeric human CD48-mFc) [M⁻¹ s⁻¹]
H4H1772P (antibody, human IgG4, V domains shown, Human IgG4 Fc (prefix H4H)) VH: EVQLVESGGGLVQPGGSLRLSCAASGFTFSSYWMSWVRQAPGKGLEWVANIMRDGSEKYYVDSVKGRFTISRDNAKNSLYLQMNSLRGEDTAVYYCARERGFYTNYGNWFDPWGQGTLVTVSS VL: DIVMTQSPLSLTVTPGESASISCRSSQSLLHSYGYNSLDWYLQKPGQSPQFLIYLVSNRASGVPDRFSGSGSGTDFTLKISRVEAEDVGVYYCMQVLQTPYTFGQGTKLEIK	1.38	1.1	0.000176	127000	0.0344	14.9	1.29e-05	376000
H3M1766N (antibody, V domains shown, also called H2M1766N) VH: EVQLVESGGGLAQPGGSLRLSCAASGFTFSSYEMNWVRQAPGKGLEWVSYITTSGSTIYYADSVKGRFTMSRDNAKKSLYLEMNSLRAEDTAVYYCAREECTNGVCYKDYQYYGMDVWGQGTTVTVSS VL: DIQMTQSPSSVSASVGDRVTITCRASQNINTWLAWYQQKPGKVPKLLIYAASSLQSGVPSRFSGSGSGTDFTLTISSLQPEDFATYYCQQANSFPLTFGGGTKVEIK	2.79	1.08	0.000177	63400	0.51	2.93	6.57e-05	129000
H4H1781P (antibody, human IgG4, V domains shown, Human IgG4 Fc (prefix H4H)) VH: QVQLVESGGGVVQPGRSLRLSCAASGFTFSNYGMHWVRQAPGKGLEWVAVIWYDDSNKNYADSVKGRFTISRDNSKNTLYLQMNSLRVEDTAVYYCARDRWTYSHFFEYWGQGTLVTVSS VL: DIQMTQSPSSVSASVGDRVTITCRASQGISSWLAWYQQKPGKAPNLLIYAASSLQSGVPSRFGGSGSGTDFSLTISGLQPEDFATYYCQQANSFPRTFGQGTKVEIK	0.194	5.85	3.3e-05	170000	0.0144	15.7	1.23e-05	854000
H4H1778P (antibody, human IgG4, V domains shown, Human IgG4 Fc (prefix H4H)) VH: QVQLVESGGGVVQPGRSLRLSCAASGFTFSNYGMHWVRQAPGKGLEWVAVIWYDESSKYYTDSVKGRFTISRDNSQNTLYLQMTSLRAEDTAVYYCARDRWTYSHYFEYWGQGTLVTVSS VL: DIQMTQSPSSVSASVGDRVTITCRASQGISSWVAWYQQKPGKAPKLLIYAASSLQSGVPSRFSGSGSGTDFTLTISSLQPEDFATYYCQQANSFPRTFGQGTKVEIK	0.476	4.1	4.69e-05	98600	0.0304	21.5	8.95e-06	294000
H4H1770P (antibody, human IgG4, V domains shown, Human IgG4 Fc (prefix H4H)) VH: QVQLVQSGAEVKKPGAAVKVSCKASGYTFTAYGISWVRQAPGQGLEWMGWISAYDGDTNNAQKFQGRVTMTTDTSSSTAYMELRSLGSDDTAVYYCARDRYSSSSGYFDYWGQGTLVTVSS VL: DIQMTQSPSSVSASVGDRVTITCRASQDISSWLAWSQQKPGKAPKALIYAASSLQSGVPSRFSGSGSGTDFTLTISSLQPEDFATYYCQQANSFPYTFGQGTKLEIK	0.259	1.27	0.000153	589000	0.00325	34.7	5.54e-06	1.71e+06
H4H1774P (antibody, human IgG4, V domains shown, Human IgG4 Fc (prefix H4H)) VH: QVQLVESGGGVVQPGRSLRLSCAASGFTFSNYGMHWVRQAPGKGLEWVAVIWYDESSKYYTDSVKGRFTISRDNSQNTLYLQMTSLRAEDTAVYYCARDRWTYSHYFEYWGQGTLVTVSS VL: DIQMTQSPSSVSASVGDRVTITCRASQGISSWVAWYQQKPGKAPKLLIYAASSLQSGVPSRFSGSGSGTDFTLTISSLQPEDFATYYCQQANSFPRTFGQGTKVEIK	0.454	4.08	4.72e-05	104000	0.0149	41.4	4.65e-06	311000
H4H1779P (antibody, human IgG4, V domains shown, Human IgG4 Fc (prefix H4H)) VH: QVQLVESGGGVVQPGRSLRLSCAASGFTFSNYGMHWVRQAPGKGLEWVAVIWYDESSKHYADSVKGRFTISRDNSQNTLYLQMTSLRAEDTAVYYCARDRWTYSHYFEYWGQGTLVTVSS VL: DIQMTQSPSSVSASVGDRVTITCRASQDISSWVAWYQQKPGKAPKLLIYAASSLQSGVPSRFSGSGSGTDFTLTISSLQPEDFATYYCQQANSFPRTFGQGTKVEIK	0.246	4.93	3.9e-05	158000	0.0151	16.5	1.17e-05	774000
H4H1775P (antibody, human IgG4, V domains shown, Human IgG4 Fc (prefix H4H)) VH: QVQLVESGGGVVQPGRSLRLSCAASGFTFSNYGMHWVRQAPGKGLEWVAVIWYDESGKHYADSVKGRFTISRDNSQNTLYLQMTSLRAEDTAVYYCARDRWTYSHYFEYWGQGTLVTVSS VL: DIQMTQSPSSVSASVGDRVTITCRASQDISSWVAWYQQKPGKAPKLLIYAASSLQSGVPSRFSGSGSGTDFTLTISSLQPEDFATYYCQQANSFPRTFGQGTKVEIK	0.34	3.92	4.92e-05	145000	0.0179	14.7	1.31e-05	734000
H4H1789Pa (antibody, V domains shown, Human IgG4 Fc (prefix H4H)) VH: EVQLLESGGGLVHPGGSLRLSCAASGFTFGGYAMSWVRQAPGKGLEWVSLISGSGGSTYYADSVKGRFTIFRDNSKNTLYLQMISLRAEDSAVYYCAKYSNYDYFDPWGQGTLVTVSS VL: not shown	3.2	0.417	0.000458	143000	0.0958	5.25	3.66e-05	382000
H2M1707N (antibody, mouse IgG2, V domains shown) VH: EGQLLESGGGLAQPGGSLRLSCAASGITFGRYAMSWVRQAPGKGLEWVSLISGSGGSTYHADSVKGRFTISRDNSKNTLYLQMNSLRAEDTAVYYCAIYNNYNWFDPWGQGTLVTVSS VL: EIVLTQSPGTLSLSPGERATLSCRASQSVSSNYLAWYQQKPGQAPRLLIYDASSRATDIPDRFSGSGSGTDFTLTISRLEPEDFAVYYCQQYGSSPRTFGQGTKVEIK	4.92	0.3	0.000642	131000	0.0923	2.92	6.59e-05	714000
H4H1707N (antibody, human IgG4, V domains shown, Human IgG4 Fc (prefix H4H)) VH: EGQLLESGGGLAQPGGSLRLSCAASGITFGRYAMSWVRQAPGKGLEWVSLISGSGGSTYHADSVKGRFTISRDNSKNTLYLQMNSLRAEDTAVYYCAIYNNYNWFDPWGQGTLVTVSS VL: EIVLTQSPGTLSLSPGERATLSCRASQSVSSNYLAWYQQKPGQAPRLLIYDASSRATDIPDRFSGSGSGTDFTLTISRLEPEDFAVYYCQQYGSSPRTFGQGTKVEIK	3.57	0.317	0.000601	168000	0.0736	6.8	2.83e-05	385000
H2M1709N (antibody, mouse IgG2, V domains shown, Human variable domains, mouse IgG2 Fc (prefix H2M)) VH: QVQLVQSGAEVKKPGASVKVSCKVSGYTLTELSIHWVRQAPGKGLEWMGGFDPEDGETIYAQKFQGRVNMTEDTSTDTAYMELSSLRSDDTTVYFCASLLPYFDYWGQGTLVTVSS VL: EIVLTQSPGTLSLSPGERATLSCRASQSVSSSYLAWYQQKPGQAPRLLIYGASSRATGIPDRFSGSGSGTDFTLSISRLEPEDFAVYFCQQYGSSMYTFGQGTKLEIK	19.8	0.0333	0.0058	292000	0.311	0.667	0.000288	928000
H4H1771P (antibody, human IgG4, V domains shown, Human IgG4 Fc (prefix H4H)) VH: QVQLVQSGTEVKKPGASVKVSCKVSGYTLIDLSIHWVRQAPGEGLEWMGGFDPEESETIYAQKFQGRVTMTEDTSTDTAYMELSSLRSEDTAVYYCVTEPIFGILIHESWGQGTLVTVSS VL: DIVMTQTPLSSPVTLGQPASISCRSSHSPVHSNGHTYLSWLQQRPGQPPRILIYKISRRFSGVPDRFSGSGAGTDFTLKISRVETEDVGIYYCMQASQFPWTFGQGTKVEIK	0.26	0.917	0.000209	805000	0.00736	12.7	1.52e-05	2.07e+06
